Biological target: the molecule itself
Test: SEC-MALS; Superdex 200 10/300 GL, 25 mM Tris pH 7.4, 0.2 g/L NaN2, 0.5 mL/min

B1: Drosophila melanogaster CP190 BTB domain (residues 1-135) (domain or fragment, UniProt Q24478 1-135, looked up)
chain: MGEVKSVKVDNWGVFFLQKLQNFFNKTDYCDLTLQFRDNSQLKVHRLVLSACTDYFNVLEQTCEIVDDALIMPNEFQADVVVPIVNFMYTGTLEFELKMYGKLLRTAKEMNMTVLLKLLEAHRRTMENVNRQQRP
notes: CP190 (centrosome associated protein at 190 kDa), Drosophila melanogaster, BTB domain, residues 1-135; the final crystal model holds residues 2-121; Native and selenomethionine-substituted protein were crystallised; also called BTB-WT; source: E. coli BL21 DE3 (pLysS), purified (Ni-NTA, thrombin digestion, Q-sepharose ion exchange); not shown: His6, N-terminal, cleaved
stoichiometry N: 2
